Experimental data published in patent US20160032279 (published 2016).
Where two headings read alike, the source gives them in different places. No end group written: not given here.

Experiments:
Streptavidin [1] = target: T1, Streptavidin (Streptomyces avidinii, UniProt P22629); assay: FACS
Streptavidin [2] = target: T1, Streptavidin; assay: FACS; remark: listed apart in the source

T1 sequence (P22629 37-163): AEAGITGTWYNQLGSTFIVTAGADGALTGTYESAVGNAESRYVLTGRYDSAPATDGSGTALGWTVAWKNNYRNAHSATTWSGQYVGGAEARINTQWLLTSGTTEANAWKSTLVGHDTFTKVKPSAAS

Row | Binder | Kd (Streptavidin [1]) [nM] | Kd (Streptavidin [2]) [nM]
1 | ICSYVMYTTCFLRVY (cysteine pairing not given here; also: phycoerythrin conjugate) [SA-2] | 8 | 
2 | TVLICMNICWTGETQ (cysteine pairing not given here; also: phycoerythrin conjugate) [SA-3] | 4 | 4
3 | RLEICQNVCYYLGTL (cysteine pairing not given here; also: phycoerythrin conjugate) [SA-1] | 10 | 
